The supplement of paper PMC10567573
± gives the standard deviation.

Experiment: protein stability index of a GFP-peptide fusion (GPS, HEK-293T) (PSI 1-6); higher = more stable
[1] = treatment: DMSO, c terminus: a fixed tail appended
[2] = treatment: MLN4924 1 uM, 8 h, c terminus: a fixed tail appended
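Further: 24-mer peptide tiles fused after GFP, lentivirally expressed, FACS-sorted into six equal bins by GFP/DsRed ratio, decoded by Illumina sequencing, PSI is the read-weighted mean bin number.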

Row | Sequence | protein stability index [1] | protein stability index [2] | protein stability index (treatment: DMSO, c terminus: native) | protein stability index (treatment: MLN4924 1 uM, 8 h, c terminus: native)
1 | VNPTGNLPMWSNQTWNNSTWSNQT [NANOGP8] | 2.75 ± 0.2 | 2.98 ± 0.35 |  | 
2 | VPGGAGPCATVSVFPGARLLTIGD [CARM1] | 2.73 ± 0.43 | 2.53 ± 0.48 |  | 
3 | VPQPRPPGARTRAGAARVARWRRL [FBXO33] | 4.39 ± 0.42 | 4.76 ± 0.21 |  | 
4 | VPSEWLSSVYKQQWFAMLRAEQDS [GMCL1] | 2.47 ± 0.19 | 2.43 ± 0.17 |  | 
5 | VQEDLEAEFQSLFSLLEELKEGML [FSD1] | 2.99 ± 0.57 | 3.01 ± 0.53 |  | 
6 | VQSIELQRPRFITSGGSNIIYVAS [VPS39] | 2.35 ± 0.44 | 2 ± 0.22 |  | 
7 | VRIQNPSLRENDFIEIELDRQELT [ANKRD40] | 3.04 ± 0.41 | 3.26 ± 0.44 |  | 
8 | VRQPILQYRWDMMHRLGEPQARMR [BEX1] | 2.95 ± 0.21 | 3.22 ± 0.29 |  | 
9 | VRRGHSHLAPSEAKAADSPTRNDL | 4.96 ± 0.16 | 4.9 ± 0.2 |  | 
10 | VSISISGSSRPCLDFLQEVTRQPR [ASB7] | 1.93 ± 0.48 | 2.05 ± 0.3 |  | 
11 | VSMEIFFKAWLHNSGTDQEQIHLL [M1AP] | 2.41 ± 0.52 | 2.21 ± 0.27 |  | 
12 | VSVESQQVQQVEVEATVKPELTAA [PRPH] | 5.23 ± 0.089 | 5.25 ± 0.12 |  | 
13 | VTATDQKVEKMLISSIKEKYPSHS [IMPA1] | 3.94 ± 0.14 | 4.27 ± 0.23 |  | 
14 | VTGPDNGVRESETEQGFGEDLEDL [NFE2L1] | 5.79 ± 0.27 | 5.62 ± 0.35 |  | 
15 | VTIKHVACGDFFTACLTDRGIIMT [NEK8] | 2.96 ± 0.5 | 2.63 ± 0.35 |  | 
16 | VTLALLGSYTVQSELGDYDPDECG [EPB41L3] | 2.46 ± 0.4 | 2.62 ± 0.27 |  | 
17 | VVAVHVVLALFVYVAWNEGSRQWR [VMA21] | 2.84 ± 0.3 | 2.88 ± 0.16 |  | 
18 | VWKHGITPPLKNVRKKRFRKTQKK [TAF7L] | 3.46 ± 0.16 | 3.86 ± 0.17 |  | 
19 | VYSDLCEAAEAVRPEERKTCRNPA [ADAMTSL2] | 4.83 ± 0.21 | 4.5 ± 0.49 |  | 

Row | Sequence | protein stability index [1] | protein stability index [2] | protein stability index (treatment: DMSO, c terminus: native) | protein stability index (treatment: MLN4924 1 uM, 8 h, c terminus: native)
20 | WAMRRSYEAIAKHNQVEAAWLEGR [TRIM35] | 2.37 ± 0.12 | 2.73 ± 0.3 |  | 
21 | WDQVSRLHEVLTEVVPIHGRGNFP [TENT5C] | 2.59 ± 0.28 | 2.67 ± 0.17 |  | 
22 | WELREKQQLAAEPVPTGFFNMWGF [WDR41] | 2.01 ± 0.11 | 2.37 ± 0.23 |  | 
23 | WEYSSSIQNSDNDLPVVQGSSSFS [TRIM29] | 4.61 ± 0.25 | 4.42 ± 0.36 |  | 
24 | WIEHSKLREINFKIVEFNPMVLKG [GLT8D2] | 2.16 ± 0.1 | 2.35 ± 0.14 |  | 
25 | WLSANPCPHCGDRTFYDPEPILCP [PRAME] | 2.45 ± 0.19 | 2.69 ± 0.45 |  | 
26 | WQPAVPLMHMLHLSGALDFPRQS [SPATS1] |  |  | 2.9 ± 0.38 | 2.73 ± 0.48
27 | WTNQQKLYSRTGDIVEFVCKSGYH [CFHR2] | 2.46 ± 0.35 | 2.5 ± 0.33 |  | 
28 | WTRNPDDITQEEYGEFYKSLTNDW [HSP90AB1] | 3.81 ± 0.15 | 3.82 ± 0.41 |  | 
29 | WVKGSVPPPLDQYVKFDAVSGDYY [CLPTM1] | 2.79 ± 0.24 | 2.72 ± 0.28 |  | 
30 | WYTKSFGHLCAAEVVKIRDSFSNQ [DLC1] | 2.56 ± 0.78 | 2.09 ± 0.49 |  | 
31 | YAFVGDYSGQITLLKLEQNTCSVI [WDFY1] | 2.94 ± 0.65 | 2.72 ± 0.58 |  | 
32 | YAMKYMNKQKCVERNEVRNVFKEL [STK32A] | 2.07 ± 0.41 | 2.24 ± 0.62 |  | 
33 | YCKNESGSRSNGMWAHSMTVQDYQ [ATE1] | 2.35 ± 0.45 | 2.7 ± 0.37 |  | 
34 | YDTTLALGHAAAFSDDCDLPSAQD [GLT8D2] | 5.33 ± 0.2 | 5.31 ± 0.3 |  | 
35 | YFITLGTEIAEQEGNQKGEQATSL [KCNA1] | 3.79 ± 0.1 | 3.84 ± 0.24 |  | 
36 | YFKEAELKDLLLQVGRGLRYIHSM [WEE1] | 2.48 ± 0.8 | 2.15 ± 0.34 |  | 
37 | YFTDTDELQLEAANETYENNFDNL [ATF6] | 4.66 ± 0.14 | 4.337 ± 0.033 |  | 
38 | YGGGLGGGFGGGFAGGFVDFGACD [KRT13] | 2.39 ± 0.46 | 2.14 ± 0.67 |  | 

Row | Sequence | protein stability index [1] | protein stability index [2] | protein stability index (treatment: DMSO, c terminus: native) | protein stability index (treatment: MLN4924 1 uM, 8 h, c terminus: native)
39 | YGVKSPLSLIARFSPIAIDGMSGL [ELAVL3] | 2.41 ± 0.091 | 2.35 ± 0.33 |  | 
40 | YIGSIMKGGAVAADGRIEPGDMLL [DVL3] | 2.34 ± 0.22 | 2.57 ± 0.43 |  | 
41 | YILECDHHGGDYKHWREWGSHAQT [CRYBA1] | 2.32 ± 0.15 | 2.43 ± 0.51 |  | 
42 | YIRAPPRSKIYLRFLDYEMQNSNE [NETO1] | 2.28 ± 0.16 | 2.44 ± 0.22 |  | 
43 | YKGRQLQGCPGAKKHEFLTSVLDA [SMOC2] | 3.39 ± 0.42 | 3.73 ± 0.73 |  | 
44 | YKILLDVKTRLEQEIATYRRLLEG [KRT17] | 2.32 ± 0.14 | 2.39 ± 0.37 |  | 
45 | YNENVYTEDGKLDIWSKSNYQVFQ [MED27] | 2.5 ± 0.42 | 2.97 ± 0.4 |  | 
46 | YNIPHGPVVGSTRRLYEKKIFEYE [EMD] | 3.18 ± 0.29 | 3.23 ± 0.14 |  | 
47 | YQQLEDDKLSQKSSSSKLSRSPLK [EPB41L3] | 4.94 ± 0.6 | 5.04 ± 0.28 |  | 
48 | YSALSCTSDASFHPAFLPQRQAIK [KCNG1] | 2.78 ± 0.23 | 3.18 ± 0.19 |  | 
49 | YSHRETVNGSWYIQDLCEMLGKYG [CASP6] | 1.93 ± 0.39 | 2.1 ± 0.35 |  | 
50 | YSHSSTRDGRRDRYSSDTTPLLNG [GOSR1] | 4.28 ± 0.4 | 4.31 ± 0.11 |  | 
51 | YSIDQEFLKEYFPIEVVTEGLLNT [NLN] | 2.79 ± 0.24 | 3.19 ± 0.53 |  | 
52 | YSRRLQVQERLTKQIAVAITEALR [GCH1] | 2.34 ± 0.47 | 2.19 ± 0.38 |  | 
53 | YTSGTTGIPKGVMLSHDNITWIAG [ACSBG2] | 2.37 ± 0.36 | 2.21 ± 0.31 |  | 
54 | YWRYDEYKRSMDPGYPKMIAHDFP [MMP1] | 2.29 ± 0.22 | 2.18 ± 0.49 |  | 
55 | YYAKRNALRAAEVWMDDFKSHVYM [GALNT9] | 2.24 ± 0.44 | 2.12 ± 0.26 |  | 
56 | YYIRYRGAVYADSGNFERCIRLWK [FEM1A] | 2.59 ± 0.35 | 2.5 ± 0.57 |  | 
